Results on one substance are retold here after article PMC7239452.

In this experiment the target is ERp29 (ER protein of 29 kDa; mouse, Min-6 insulinoma cells) (mouse (endogenous in Min-6)) (UniProt P57759). Briefly: co-IP; Min-6 lysate, non-denaturing; 50 ug lysate protein, 2 ul primary antibody 1 h, Protein G agarose 2 h at room temperature; precipitated Proinsulin quantified by Mercodia rat/mouse Proinsulin ELISA; controls: no antibody, anti-V5. Background: In an ELISA, binding on a coated surface is turned into a signal by an enzyme label.

“Proinsulin (mouse, Min-6 insulinoma cells) (natural protein)”: the fold precipitation of Proinsulin over the anti-V5 control is above 10 fold.
